US20130102527A1

Tests used:
[1] = molecular target: caspase-like site (β1 subunit) of 26S proteasomes purified from rabbit muscle (rabbit); assay: cell-based or functional assay
[2] = molecular target: chymotrypsin-like site (β5 subunit) of yeast 20S proteasome (S. cerevisiae) (UniProt P30656); assay: cell-based or functional assay
[3] = molecular target: proteasome β5 subunit (chymotrypsin-like site) in human cells and cell extracts (human) (UniProt P28074); assay: cell-based or functional assay
Sequence of proteasome β5 subunit (chymotrypsin-like site) in human cells and cell extracts (human) (P28074 60-263): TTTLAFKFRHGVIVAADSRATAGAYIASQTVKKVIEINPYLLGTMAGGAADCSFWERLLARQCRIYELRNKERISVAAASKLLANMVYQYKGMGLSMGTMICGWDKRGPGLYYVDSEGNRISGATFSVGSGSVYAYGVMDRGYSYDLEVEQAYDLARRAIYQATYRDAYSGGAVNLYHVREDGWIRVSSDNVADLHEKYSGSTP

[4] = molecular target: trypsin-like site (β2 subunit) of yeast 20S proteasome (S. cerevisiae) (UniProt P25043); assay: cell-based or functional assay
Sequence of trypsin-like site (β2 subunit) of yeast 20S proteasome (S. cerevisiae) (P25043 30-261): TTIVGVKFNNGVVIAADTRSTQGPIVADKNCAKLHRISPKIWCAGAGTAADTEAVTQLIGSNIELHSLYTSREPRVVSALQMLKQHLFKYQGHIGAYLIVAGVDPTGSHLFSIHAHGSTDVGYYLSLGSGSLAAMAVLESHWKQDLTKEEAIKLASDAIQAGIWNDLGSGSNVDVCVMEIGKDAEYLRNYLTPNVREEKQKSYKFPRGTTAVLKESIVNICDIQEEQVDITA

[5] = molecular target: proteasome β2 subunit (trypsin-like site) in human cells and cell extracts (human) (UniProt Q99436); assay: cell-based or functional assay
Sequence of proteasome β2 subunit (trypsin-like site) in human cells and cell extracts (human) (Q99436 44-277): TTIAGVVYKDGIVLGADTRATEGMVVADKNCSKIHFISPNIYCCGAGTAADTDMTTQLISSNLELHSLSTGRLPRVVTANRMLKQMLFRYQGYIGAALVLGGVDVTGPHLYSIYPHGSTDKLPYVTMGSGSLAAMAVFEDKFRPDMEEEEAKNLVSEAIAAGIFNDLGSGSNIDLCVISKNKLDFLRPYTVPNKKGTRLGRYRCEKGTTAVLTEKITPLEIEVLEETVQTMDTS

[6] = molecular target: proteasome β2 subunit (trypsin-like site) in human cells and cell extracts (human) (UniProt Q99436); assay: competition with activity-based probe in living HEK-293 cells, 4 h; Tr-L site
[7] = molecular target: proteasome β1 subunit (caspase-like site) in human cells and cell extracts (human) (UniProt P28072); assay: cell-based or functional assay
Sequence of proteasome β1 subunit (caspase-like site) in human cells and cell extracts (human) (P28072 35-239): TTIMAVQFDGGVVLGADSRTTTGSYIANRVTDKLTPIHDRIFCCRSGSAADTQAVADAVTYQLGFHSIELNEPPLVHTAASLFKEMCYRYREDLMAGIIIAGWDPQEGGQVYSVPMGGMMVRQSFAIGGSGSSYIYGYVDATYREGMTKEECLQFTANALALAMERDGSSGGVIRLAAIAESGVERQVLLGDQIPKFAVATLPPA

[8] = molecular target: trypsin-like site (β2 subunit) of 26S proteasomes purified from rabbit muscle (rabbit) (UniProt G1SWK8); assay: cell-based or functional assay
Sequence of trypsin-like site (β2 subunit) of 26S proteasomes purified from rabbit muscle (rabbit) (G1SWK8 entry or part of it): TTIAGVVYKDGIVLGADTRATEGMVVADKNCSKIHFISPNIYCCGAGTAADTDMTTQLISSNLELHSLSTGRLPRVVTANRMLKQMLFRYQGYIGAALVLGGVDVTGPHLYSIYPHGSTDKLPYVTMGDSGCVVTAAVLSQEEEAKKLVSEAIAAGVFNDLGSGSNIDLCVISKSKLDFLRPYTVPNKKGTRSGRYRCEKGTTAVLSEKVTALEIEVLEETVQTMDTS

[9] = molecular target: chymotrypsin-like site (β5 subunit) of 26S proteasomes purified from rabbit muscle (rabbit) (UniProt G1T4Q9); assay: cell-based or functional assay
Sequence of chymotrypsin-like site (β5 subunit) of 26S proteasomes purified from rabbit muscle (rabbit) (G1T4Q9 entry or part of it): as the sequence (P28074 60-263) above, with E197D counted along it

[10] = molecular target: proteasome β5 subunit (chymotrypsin-like site) in human cells and cell extracts (human) (UniProt P28074); assay: competition with activity-based probe in living HEK-293 cells, 4 h; Chym-L site

Sequence of chymotrypsin-like site (β5 subunit) of yeast 20S proteasome (S. cerevisiae) (P30656 76-287): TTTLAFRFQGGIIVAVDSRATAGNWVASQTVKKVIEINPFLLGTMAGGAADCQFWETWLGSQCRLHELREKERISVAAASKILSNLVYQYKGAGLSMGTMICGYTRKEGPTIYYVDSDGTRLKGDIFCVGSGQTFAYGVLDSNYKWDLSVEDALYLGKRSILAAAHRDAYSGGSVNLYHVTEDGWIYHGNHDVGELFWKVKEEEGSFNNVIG

Substance: N3-Phe-Ala(4-pyridine)-Leu-Phe(4-CH2NH2-TFA)-VS (50) (peptide)
- IC50 (µM) for sites: Casp-L [1]: 30 µM

Substance: HMB-Val-Ser-Phe(4-CH2NH2)-VS (48) (peptide)
- IC50 (µM) for yeast 20S proteasome: Chym-L [2]: 19.3 µM
- IC50 (µM) for sites: Chym-L; NCI-H929 cells, 6 h, PROTEASOMEGLO [3]: 13 µM
- IC50 (µM) for sites: Chym-L; RPMI-8226 cells, 6 h, PROTEASOMEGLO [3]: 15 µM
- IC50 (µM) for yeast 20S proteasome: Tr-L [4]: 1.6 µM
- IC50 (µM) for sites: Tr-L; NCI-H929 cells, 6 h, PROTEASOMEGLO [5]: 0.2 µM
- IC50 (µM) for sites: Tr-L; RPMI-8226 cells, 6 h, PROTEASOMEGLO [5]: 3.2 µM

Substance: N3-Phe-Phe(4-NH2.TFA)-Leu-Phe(4-CH2NH2.TFA)-VS (51) (peptide)
- IC50 [6]: 10 µM
- IC50 (µM) for sites: Casp-L [1]: 30 µM
- IC50 (µM) for sites: Casp-L; NCI-H929 cells, 6 h, PROTEASOMEGLO [7]: 22 µM
- IC50 (µM) for sites: Casp-L; RPMI-8226 cells, 6 h, PROTEASOMEGLO [7]: > 30 µM
- IC50 (µM) for sites: Chym-L; NCI-H929 cells, 6 h, PROTEASOMEGLO [3]: 3.6 µM
- IC50 (µM) for sites: Chym-L; RPMI-8226 cells, 6 h, PROTEASOMEGLO [3]: 7.2 µM
- IC50 (µM) for sites: Tr-L; NCI-H929 cells, 6 h, PROTEASOMEGLO [5]: 0.11 µM
- IC50 (µM) for sites: Tr-L; RPMI-8226 cells, 6 h, PROTEASOMEGLO [5]: 0.58 µM
- IC50 (µM) for sites: Tr-L [8]: 0.03 µM
- IC50 (µM) for sites: Chym-L [9]: 3.4 µM
- IC50 [10]: > 50 µM

Substance: LU-005 (peptide)
- Inhibition of active sites (% control): β1; KMS-12-BM, 0.012 µM LU-005, 1 h [7]: -34%
- Inhibition of active sites (% control): β1; KMS-12-BM, 0.037 µM LU-005, 1 h [7]: -1%
- Inhibition of active sites (% control): β1; KMS-12-BM, 0.11 µM LU-005, 1 h [7]: 3%
- Inhibition of active sites (% control): β1; KMS-12-BM, 0.33 µM LU-005, 1 h [7]: 6%
- Inhibition of active sites (% control): β1; KMS-12-BM, 1.0 µM LU-005, 1 h [7]: 11%
- Inhibition of active sites (% control): β1; KMS-18, 0.037 µM LU-005, 1 h [7]: 0%
- Inhibition of active sites (% control): β1; KMS-18, 0.11 µM LU-005, 1 h [7]: 21%
- Inhibition of active sites (% control): β1; KMS-18, 0.33 µM LU-005, 1 h [7]: 29%
- Inhibition of active sites (% control): β1; KMS-18, 1.0 µM LU-005, 1 h [7]: 32%
- Inhibition of active sites (% control): β1; KMS-18, 3.0 µM LU-005, 1 h [7]: 39%
- Inhibition of active sites (% control): β1; KMS-18, 9.0 µM LU-005, 1 h [7]: 42%
- Inhibition of active sites (% control): β1; MM1.R, 0.004 µM LU-005, 1 h [7]: 6%
- Inhibition of active sites (% control): β1; MM1.R, 0.011 µM LU-005, 1 h [7]: 3%
- Inhibition of active sites (% control): β1; MM1.R, 0.043 µM LU-005, 1 h [7]: 6%
- Inhibition of active sites (% control): β1; MM1.R, 0.11 µM LU-005, 1 h [7]: 27%
- Inhibition of active sites (% control): β1; NCI-H929, 0.0014 µM LU-005, 1 h [7]: -14%
- Inhibition of active sites (% control): β1; NCI-H929, 0.004 µM LU-005, 1 h [7]: -7%
- Inhibition of active sites (% control): β1; NCI-H929, 0.011 µM LU-005, 1 h [7]: 5.5%
- Inhibition of active sites (% control): β1; NCI-H929, 0.043 µM LU-005, 1 h [7]: 15%
- Inhibition of active sites (% control): β1; NCI-H929, 0.11 µM LU-005, 1 h [7]: 6%
- Inhibition of active sites (% control): β1; RPMI-8226, 0.012 µM LU-005, 1 h [7]: -34%
- Inhibition of active sites (% control): β1; RPMI-8226, 0.037 µM LU-005, 1 h [7]: 16%
- Inhibition of active sites (% control): β1; RPMI-8226, 0.11 µM LU-005, 1 h [7]: 23%
- Inhibition of active sites (% control): β1; RPMI-8226, 0.33 µM LU-005, 1 h [7]: 37%
- Inhibition of active sites (% control): β1; RPMI-8226, 1.0 µM LU-005, 1 h [7]: 37%
- Inhibition of active sites (% control): β5; KMS-12-BM, 0.012 µM LU-005, 1 h [3]: 16%
- Inhibition of active sites (% control): β5; KMS-12-BM, 0.037 µM LU-005, 1 h [3]: 48%
- Inhibition of active sites (% control): β5; KMS-12-BM, 0.11 µM LU-005, 1 h [3]: 56%
- Inhibition of active sites (% control): β5; KMS-12-BM, 0.33 µM LU-005, 1 h [3]: 81%
- Inhibition of active sites (% control): β5; KMS-12-BM, 1.0 µM LU-005, 1 h [3]: 95%
- Inhibition of active sites (% control): β5; KMS-18, 0.037 µM LU-005, 1 h [3]: 14%
- Inhibition of active sites (% control): β5; KMS-18, 0.11 µM LU-005, 1 h [3]: 47%
- Inhibition of active sites (% control): β5; KMS-18, 0.33 µM LU-005, 1 h [3]: 69%
- Inhibition of active sites (% control): β5; KMS-18, 1.0 µM LU-005, 1 h [3]: 85%
- Inhibition of active sites (% control): β5; KMS-18, 3.0 µM LU-005, 1 h [3]: 94%
- Inhibition of active sites (% control): β5; KMS-18, 9.0 µM LU-005, 1 h [3]: 97%
- Inhibition of active sites (% control): β5; MM1.R, 0.004 µM LU-005, 1 h [3]: 17%
- Inhibition of active sites (% control): β5; MM1.R, 0.011 µM LU-005, 1 h [3]: 31%
- Inhibition of active sites (% control): β5; MM1.R, 0.043 µM LU-005, 1 h [3]: 54%
- Inhibition of active sites (% control): β5; MM1.R, 0.11 µM LU-005, 1 h [3]: 76%
- Inhibition of active sites (% control): β5; NCI-H929, 0.0014 µM LU-005, 1 h [3]: 22%
- Inhibition of active sites (% control): β5; NCI-H929, 0.004 µM LU-005, 1 h [3]: 22%
- Inhibition of active sites (% control): β5; NCI-H929, 0.011 µM LU-005, 1 h [3]: 48%
- Inhibition of active sites (% control): β5; NCI-H929, 0.043 µM LU-005, 1 h [3]: 72%
- Inhibition of active sites (% control): β5; NCI-H929, 0.11 µM LU-005, 1 h [3]: 86%
- Inhibition of active sites (% control): β5; RPMI-8226, 0.012 µM LU-005, 1 h [3]: 16%
- Inhibition of active sites (% control): β5; RPMI-8226, 0.037 µM LU-005, 1 h [3]: 45%
- Inhibition of active sites (% control): β5; RPMI-8226, 0.11 µM LU-005, 1 h [3]: 49%
- Inhibition of active sites (% control): β5; RPMI-8226, 0.33 µM LU-005, 1 h [3]: 62%
- Inhibition of active sites (% control): β5; RPMI-8226, 1.0 µM LU-005, 1 h [3]: 82%
- Inhibition of active sites (% control): β2; KMS-12-BM, 0.012 µM LU-005, 1 h [5]: -21%
- Inhibition of active sites (% control): β2; KMS-12-BM, 0.037 µM LU-005, 1 h [5]: -12%
- Inhibition of active sites (% control): β2; KMS-12-BM, 0.11 µM LU-005, 1 h [5]: 4.7%
- Inhibition of active sites (% control): β2; KMS-12-BM, 0.33 µM LU-005, 1 h [5]: 3%
- Inhibition of active sites (% control): β2; KMS-12-BM, 1.0 µM LU-005, 1 h [5]: 29%
- Inhibition of active sites (% control): β2; KMS-18, 0.037 µM LU-005, 1 h [5]: -13%
- Inhibition of active sites (% control): β2; KMS-18, 0.11 µM LU-005, 1 h [5]: 12%
- Inhibition of active sites (% control): β2; KMS-18, 0.33 µM LU-005, 1 h [5]: 24%
- Inhibition of active sites (% control): β2; KMS-18, 1.0 µM LU-005, 1 h [5]: 38%
- Inhibition of active sites (% control): β2; KMS-18, 3.0 µM LU-005, 1 h [5]: 50%
- Inhibition of active sites (% control): β2; KMS-18, 9.0 µM LU-005, 1 h [5]: 62%
- Inhibition of active sites (% control): β2; MM1.R, 0.004 µM LU-005, 1 h [5]: 6.5%
- Inhibition of active sites (% control): β2; MM1.R, 0.011 µM LU-005, 1 h [5]: 5%
- Inhibition of active sites (% control): β2; MM1.R, 0.043 µM LU-005, 1 h [5]: 5%
- Inhibition of active sites (% control): β2; MM1.R, 0.11 µM LU-005, 1 h [5]: 23%
- Inhibition of active sites (% control): β2; NCI-H929, 0.0014 µM LU-005, 1 h [5]: -9%
- Inhibition of active sites (% control): β2; NCI-H929, 0.004 µM LU-005, 1 h [5]: -13%
- Inhibition of active sites (% control): β2; NCI-H929, 0.011 µM LU-005, 1 h [5]: -6%
- Inhibition of active sites (% control): β2; NCI-H929, 0.043 µM LU-005, 1 h [5]: 6%
- Inhibition of active sites (% control): β2; NCI-H929, 0.11 µM LU-005, 1 h [5]: 11%
- Inhibition of active sites (% control): β2; RPMI-8226, 0.012 µM LU-005, 1 h [5]: -21%
- Inhibition of active sites (% control): β2; RPMI-8226, 0.037 µM LU-005, 1 h [5]: 1%
- Inhibition of active sites (% control): β2; RPMI-8226, 0.11 µM LU-005, 1 h [5]: 3%
- Inhibition of active sites (% control): β2; RPMI-8226, 0.33 µM LU-005, 1 h [5]: 13%
- Inhibition of active sites (% control): β2; RPMI-8226, 1.0 µM LU-005, 1 h [5]: 22%
